Reference: paper PMC5279944

Tests used:
[1] = molecular target: plasma fibronectin purified from Fn1^syn/syn mice (pFN^syn) (mouse)
[2] = molecular target: plasma fibronectin purified from Fn1^syn/syn mice (pFN^syn) (mouse); remark: listed apart in the source
[3] = molecular target: plasma fibronectin purified from Fn1^syn/syn mice (pFN^syn) (mouse); remark: listed apart in the source
[4] = molecular target: plasma fibronectin purified from Fn1^syn/syn mice (pFN^syn) (mouse); experiment: cross-linking; serum-starved Fn1-KO fibroblasts seeded (15, 30 and 60 min) on pFN-coated glass coverslips, spun or not spun; 1 mM DTSSP 15 min at 4°C; cross-linked fraction released with 25 mM DTT, α5 integrin western blot; cross-linked over total integrin

Row | adhesion strength (τ50, spinning disk) of Fn1-KO cells on pFN^syn compared to pFN^wt [1] [% decrease] | pY397-FAK level in Fn1-KO cells plated on pFN^syn compared to pFN^wt [2] [% decrease] | mean spreading area of Itgb3^-/- platelets seeded for 60 min on pFN^syn [3] [μm^2] | α5 integrin crosslinked to FN, percent of that on pFN^wt [4] [%] | adhesion of wild-type platelets under shear flow (1000/s, 10 min), pFN^syn compared to pFN^wt (fold reduction) [3] | Substance
1 | 16 | 54 | 3.8 | 60 |  | α5β1 integrin, endogenous on mouse cells (Fn1-KO fibroblasts) (from UniProt P11688 45-1053; P09055 21-798) (receptor)
2 |  |  |  |  | 10 | αIIbβ3 integrin on mouse platelets (from UniProt Q9QUM0 32-1033; O54890 26-787) (receptor)
